These results are taken from patent US20140315986A1.

The experiment addresses IL-6R (UniProt P08887). Put plainly: cell-based or functional assay.

Sequence of IL-6R (P08887 20-468 limits assumed): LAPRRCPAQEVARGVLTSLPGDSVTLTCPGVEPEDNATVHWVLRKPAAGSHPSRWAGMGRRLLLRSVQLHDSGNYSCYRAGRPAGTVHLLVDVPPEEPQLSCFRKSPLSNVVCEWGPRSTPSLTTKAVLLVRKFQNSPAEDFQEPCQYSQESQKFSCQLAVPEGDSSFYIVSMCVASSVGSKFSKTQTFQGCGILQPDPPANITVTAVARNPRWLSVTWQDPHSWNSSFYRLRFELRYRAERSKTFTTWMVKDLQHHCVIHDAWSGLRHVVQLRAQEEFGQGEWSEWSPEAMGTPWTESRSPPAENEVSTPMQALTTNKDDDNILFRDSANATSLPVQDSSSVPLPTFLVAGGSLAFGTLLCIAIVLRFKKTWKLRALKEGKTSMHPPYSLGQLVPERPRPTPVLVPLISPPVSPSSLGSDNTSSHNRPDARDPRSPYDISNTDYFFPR

The substance Tocilizumab (antibody) had a Relative IL-6 Inhibition (%) of IL-6-dependent U266B1 cell proliferation, Tocilizumab at 1 µg/mL (6.7 × 10^-9 M) of 15.1%; a Relative IL-6 Inhibition (%) of IL-6-dependent U266B1 cell proliferation, Tocilizumab at 10 µg/mL (6.7 × 10^-8 M) of 60.7%; a Relative IL-6 Inhibition (%) of IL-6-dependent U266B1 cell proliferation, Tocilizumab at 100 µg/mL (6.7 × 10^-7 M) of 57%.
